Measured values reported in article PMC10731242, “Macromolecular crowding potently stimulates DNA supercoiling activity of Mycobacterium tuberculosis DNA gyrase” (The Journal of Biological Chemistry, 2023).

Molecular target: T1, Mycobacterium tuberculosis DNA gyrase subunit A (Mycobacterium tuberculosis, UniProt P9WG47 1-838)
T1 construct: also called Mtb GyrA; Mtb gyrase subunit A
Assay: SEC
Settings: both partners purified

T1 sequence (P9WG47 whole entry): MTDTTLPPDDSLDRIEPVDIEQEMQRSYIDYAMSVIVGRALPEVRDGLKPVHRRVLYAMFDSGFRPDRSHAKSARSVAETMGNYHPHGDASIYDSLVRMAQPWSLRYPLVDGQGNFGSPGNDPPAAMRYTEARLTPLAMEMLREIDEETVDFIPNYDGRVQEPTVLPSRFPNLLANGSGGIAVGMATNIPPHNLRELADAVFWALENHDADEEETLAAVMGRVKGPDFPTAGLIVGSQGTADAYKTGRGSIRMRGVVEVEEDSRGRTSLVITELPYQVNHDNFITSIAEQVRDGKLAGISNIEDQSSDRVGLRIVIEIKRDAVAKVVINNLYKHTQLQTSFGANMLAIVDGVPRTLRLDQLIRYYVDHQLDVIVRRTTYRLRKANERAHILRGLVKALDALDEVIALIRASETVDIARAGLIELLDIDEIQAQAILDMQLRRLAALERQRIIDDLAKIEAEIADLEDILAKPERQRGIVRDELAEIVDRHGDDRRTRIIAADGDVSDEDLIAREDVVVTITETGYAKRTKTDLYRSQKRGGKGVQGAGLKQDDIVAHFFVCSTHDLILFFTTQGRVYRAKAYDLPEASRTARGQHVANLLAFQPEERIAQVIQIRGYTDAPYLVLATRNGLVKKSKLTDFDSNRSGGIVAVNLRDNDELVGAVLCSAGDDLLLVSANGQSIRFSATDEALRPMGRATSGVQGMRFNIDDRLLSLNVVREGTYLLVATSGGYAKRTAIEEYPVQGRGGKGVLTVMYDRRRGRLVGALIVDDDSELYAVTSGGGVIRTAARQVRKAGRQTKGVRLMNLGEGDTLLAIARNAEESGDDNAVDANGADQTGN

B1: Mycobacterium tuberculosis DNA gyrase subunit B (enzyme)
chain: MAAQKKKAQDEYGAASITILEGLEAVRKRPGMYIGSTGERGLHHLIWEVVDNAVDEAMAGYATTVNVVLLEDGGVEVADDGRGIPVATHASGIPTVDVVMTQLHAGGKFDSDAYAISGGLHGVGVSVVNALSTRLEVEIKRDGYEWSQVYEKSEPLGLKQGAPTKKTGSTVRFWADPAVFETTEYDFETVARRLQEMAFLNKGLTINLTDERVTQDEVVDEVVSDVAEAPKSASERAAESTAPHKVKSRTFHYPGGLVDFVKHINRTKNAIHSSIVDFSGKGTGHEVEIAMQWNAGYSESVHTFANTINTHEGGTHEEGFRSALTSVVNKYAKDRKLLKDKDPNLTGDDIREGLAAVISVKVSEPQFEGQTKTKLGNTEVKSFVQKVCNEQLTHWFEANPTDAKVVVNKAVSSAQARIAARKARELVRRKSATDIGGLPGKLADCRSTDPRKSELYVVEGDSAGGSAKSGRDSMFQAILPLRGKIINVEKARIDRVLKNTEVQAIITALGTGIHDEFDIGKLRYHKIVLMADADVDGQHISTLLLTLLFRFMRPLIENGHVFLAQPPLYKLKWQRSDPEFAYSDRERDGLLEAGLKAGKKINKEDGIQRYKGLGEMDAKELWETTMDPSVRVLRQVTLDDAAAADELFSILMGEDVDARRSFITRNAKDVRFLDV
notes: also called Mtb GyrB; gyrB
B1: binds.
